Values quoted from earlier work in paper PMC4245983.
Like-named read-outs stand apart in the source and are kept apart here.

Key:
IscU (Escherichia coli) [1] = molecular target: IscU (Escherichia coli) (UniProt P0ACD4); conditions: cited from earlier work
IscU (Escherichia coli) [2] = molecular target: IscU (Escherichia coli) (UniProt P0ACD4); conditions: cited from earlier work; remark: listed apart in the source

IscU (Escherichia coli), sequence (P0ACD4 whole entry): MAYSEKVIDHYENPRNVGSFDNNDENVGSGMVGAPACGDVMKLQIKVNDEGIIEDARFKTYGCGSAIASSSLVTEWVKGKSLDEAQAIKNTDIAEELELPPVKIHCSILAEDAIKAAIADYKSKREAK
HscA, sequence (P0A6Z1 whole entry): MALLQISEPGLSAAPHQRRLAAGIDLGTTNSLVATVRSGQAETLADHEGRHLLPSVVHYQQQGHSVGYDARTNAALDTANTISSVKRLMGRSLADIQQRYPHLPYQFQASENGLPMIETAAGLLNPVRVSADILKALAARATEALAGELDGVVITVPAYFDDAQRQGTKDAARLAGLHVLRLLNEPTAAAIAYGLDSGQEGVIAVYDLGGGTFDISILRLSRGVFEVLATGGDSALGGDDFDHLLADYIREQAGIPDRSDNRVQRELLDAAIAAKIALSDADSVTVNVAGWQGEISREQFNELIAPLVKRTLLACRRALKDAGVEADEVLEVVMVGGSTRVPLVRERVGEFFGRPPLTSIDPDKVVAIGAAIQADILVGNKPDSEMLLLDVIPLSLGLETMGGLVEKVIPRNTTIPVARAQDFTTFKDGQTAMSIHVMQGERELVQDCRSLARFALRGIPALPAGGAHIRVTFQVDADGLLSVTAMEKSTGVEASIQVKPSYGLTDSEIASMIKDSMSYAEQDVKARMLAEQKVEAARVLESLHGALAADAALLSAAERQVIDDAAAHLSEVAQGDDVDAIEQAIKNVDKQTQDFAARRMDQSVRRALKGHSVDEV

## HscA (from UniProt P0A6Z1)
IscU (Escherichia coli) [1]
  Kd: 37 µM
IscU (Escherichia coli) [2]
  Kd: 1.6 µM
